Assay results taken from patent US20250296971A1, “GASTRIC INHIBITORY PEPTIDE RECEPTOR LIGANDS” (priority 2021, published 2025).
*1 amine or outer side, *2 acyl side, *3 side chain or, on linkers, in order; H or OH if unused. Bridges are numbered along the chain shown (N, C = ends). Primed or numbered codes have the meaning given here. [ ]: non-standard residue; d: D form. The star is where a group is joined. 3‑methylbenzoyl = 3-methylbenzoyl group bridging Dap and AET, O=C(c1cccc(C[*:3])c1)[*:2]; Ttds = 1,13-diamino-4,7,10-trioxatridecan-succinamic acid, NCCCOCCOCCOCCCNC(=O)CCC(=O)*; Pro(trans-4-NH2) = O=C([C@@H]1C[C@@H](N[*:3])CN1[*:1])[*:2]; DOTA = O=C(O)CN1CCN(CC(=O)O)CCN(CC(=O)*)CCN(CC(=O)O)CC1; Trp(5-Cl) = N[C@@H](Cc1c[nH]c2ccc(Cl)cc12)C(=O)O; Pyridine(2,6-diCH2) = c1cc(C[*:1])nc(C[*:2])c1; Trp(7-F) = N[C@@H](Cc1c[nH]c2c(F)cccc12)C(=O)O; 2Lut″ = 2,6-lutidylidene linking two thiols; mli = maleimide bridging scaffold; Hyp = O=C(O)[C@@H]1C[C@@H](O)CN1; Cysteamide = C(CS[*:3])N[*:1]; Tle = CC(C)(C)[C@H](N)C(=O)O; Thz = O=C(O)[C@@H]1CSCN1; Thp = NC1(C(=O)O)CCOCC1; Dap = NC[C@H](N)C(=O)O; Aib = CC(C)(N)C(=O)O

Each binder was assayed against human Gastric Inhibitory Peptide Receptor (GIPR) (human) (UniProt P48546) (assay: FACS competition vs biotinylated GIP-057 on CHO-K1-hGIPR cells; category A: pIC50 >8.0).
human Gastric Inhibitory Peptide Receptor (GIPR) (human), sequence (P48546 22-466 limits assumed): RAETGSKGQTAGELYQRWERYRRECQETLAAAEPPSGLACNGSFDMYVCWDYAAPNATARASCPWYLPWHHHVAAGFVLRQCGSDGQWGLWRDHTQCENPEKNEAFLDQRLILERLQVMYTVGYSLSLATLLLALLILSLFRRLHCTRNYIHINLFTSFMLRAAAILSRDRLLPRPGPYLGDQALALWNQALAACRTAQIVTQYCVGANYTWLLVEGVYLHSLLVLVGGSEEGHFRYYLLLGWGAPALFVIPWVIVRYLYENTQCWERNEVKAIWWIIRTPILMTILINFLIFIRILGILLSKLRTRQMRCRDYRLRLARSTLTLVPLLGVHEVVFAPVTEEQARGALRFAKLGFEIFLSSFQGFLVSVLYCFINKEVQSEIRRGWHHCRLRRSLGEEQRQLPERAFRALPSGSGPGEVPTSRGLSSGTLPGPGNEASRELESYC

Row | Binder | pIC50
1 | Ac-DW[Trp(5-Cl)][Hyp]E[dL]C[Thp]RIC-NH2 (linker 7-11 via Pyridine(2,6-diCH2); SMILES CC[C@H](C)[C@@H]1NC(=O)[C@H](CCCNC(=N)N)NC(=O)C2(CCOCC2)NC(=O)[C@@H](NC(=O)[C@@H](CC(C)C)NC(=O)[C@H](CCC(=O)O)NC(=O)[C@@H]2C[C@@H](O)CN2C(=O)[C@H](Cc2c[nH]c3ccc(Cl)cc23)NC(=O)[C@H](Cc2c[nH]c3ccccc23)NC(=O)[C@H](CC(=O)O)NC(C)=O)CSCc2cccc(n2)CSC[C@@H](C(N)=O)NC1=O) [Ac-Asp-Trp-5Clw-Hyp-Glu-leu-[Cys(2Lut)-Thp-Arg-Ile-Cys]-NH2] | > 8 pic50
2 | Ac-DW[Trp(5-Cl)][Hyp]E[dL]C[Thp]L[Tle]C-NH2 (linker 7-11 via Pyridine(2,6-diCH2); SMILES CC(=O)N[C@@H](CC(=O)O)C(=O)N[C@@H](Cc1c[nH]c2ccccc12)C(=O)N[C@@H](Cc1c[nH]c2ccc(Cl)cc12)C(=O)N1C[C@H](O)C[C@H]1C(=O)N[C@@H](CCC(=O)O)C(=O)N[C@H](CC(C)C)C(=O)N[C@H]1CSCc2cccc(n2)CSC[C@@H](C(N)=O)NC(=O)[C@H](C(C)(C)C)NC(=O)[C@H](CC(C)C)NC(=O)C2(CCOCC2)NC1=O) [Ac-Asp-Trp-5Clw-Hyp-Glu-leu-[Cys(2Lut)-Thp-Leu-Tle-Cys]-NH2] | > 8 pic50
3 | Ac-DW[Trp(5-Cl)][Hyp]E[dL]C[Thp]LIC-NH2 (linker 7-11 via mli) [Ac-Asp-Trp-5Clw-Hyp-Glu-leu-[Cys(mli)-Thp-Leu-Ile-Cys]-NH2] | > 8 pic50
4 | Ac-DW[Trp(5-Cl)][Pro(trans-4-NH2)]E[dL]C[Thp]LIC-NH2 (linker 7-11 via 2Lut″) [Ac-Asp-Trp-5Clw-Tap-Glu-leu-[Cys(2Lut)-Thp-Leu-Ile-Cys]-NH2] | > 8 pic50
5 | Ac-DF[Trp(5-Cl)][Hyp]E[dL]C[Thp]LIC-NH2 (linker 7-11 via Pyridine(2,6-diCH2)) [Ac-Asp-Phe-5Clw-Hyp-Glu-leu-[Cys(2Lut)-Thp-Leu-Ile-Cys]-NH2] | > 8 pic50
6 | Ac-DW[Trp(7-F)][Hyp]E[dL]C[Thp]LIC-NH2 (linker 7-11 via 2Lut″) [Ac-Asp-Trp-7Fw-Hyp-Glu-leu-[Cys(2Lut)-Thp-Leu-Ile-Cys]-NH2] | > 8 pic50
7 | Ac-DW[Trp(5-Cl)][Hyp]E[dL]C[Thp]IIC-NH2 (linker 7-11 via Pyridine(2,6-diCH2); SMILES CC[C@H](C)[C@@H]1NC(=O)[C@H]([C@@H](C)CC)NC(=O)C2(CCOCC2)NC(=O)[C@@H](NC(=O)[C@@H](CC(C)C)NC(=O)[C@H](CCC(=O)O)NC(=O)[C@@H]2C[C@@H](O)CN2C(=O)[C@H](Cc2c[nH]c3ccc(Cl)cc23)NC(=O)[C@H](Cc2c[nH]c3ccccc23)NC(=O)[C@H](CC(=O)O)NC(C)=O)CSCc2cccc(n2)CSC[C@@H](C(N)=O)NC1=O) [Ac-Asp-Trp-5Clw-Hyp-Glu-leu-[Cys(2Lut)-Thp-Ile-Ile-Cys]-NH2] | > 8 pic50

Results, then the binder that gave them:

Row | pIC50 | Binder
8 | > 8 pic50 | Ac-DW[Trp(5-Cl)][Hyp][dE]LC[Thp]LIC-NH2 (linker 7-11 via Pyridine(2,6-diCH2)) [Ac-Asp-Trp-5Clw-Hyp-glu-Leu-[Cys(2Lut)-Thp-Leu-Ile-Cys]-NH2]
9 | > 8 pic50 | Ac-DW[Trp(5-Cl)][Hyp]E[dL]C[Thp]SIC-NH2 (linker 7-11 via Pyridine(2,6-diCH2); SMILES CC[C@H](C)[C@@H]1NC(=O)[C@H](CO)NC(=O)C2(CCOCC2)NC(=O)[C@@H](NC(=O)[C@@H](CC(C)C)NC(=O)[C@H](CCC(=O)O)NC(=O)[C@@H]2C[C@@H](O)CN2C(=O)[C@H](Cc2c[nH]c3ccc(Cl)cc23)NC(=O)[C@H](Cc2c[nH]c3ccccc23)NC(=O)[C@H](CC(=O)O)NC(C)=O)CSCc2cccc(n2)CSC[C@@H](C(N)=O)NC1=O) [Ac-Asp-Trp-5Clw-Hyp-Glu-leu-[Cys(2Lut)-Thp-Ser-Ile-Cys]-NH2]
10 | > 8 pic50 | Ac-D[Trp(7-F)][Trp(5-Cl)][Hyp]E[dL]C[Thp]LIC-NH2 (linker 7-11 via Pyridine(2,6-diCH2)) [Ac-Asp-7Fw-5Clw-Hyp-Glu-leu-[Cys(2Lut)-Thp-Leu-Ile-Cys]-NH2]
11 | > 8 pic50 | {DOTA-Ttds}-DW[Trp(5-Cl)]PE[dL][Dap][Aib]LI[Cysteamide] (linker (positions not given here) via 3‑methylbenzoyl; not fully specified (bridges); printed as DOTA-Ttds-Asp-Trp-5Clw-Pro-Glu-leu-[Dap(3MeBz)-Aib-Leu-Ile-AET]) [DOTA-Ttds-Asp-Trp-5Clw-Pro-Glu-leu-[Dap(3MeBz)-Aib-Leu-Ile-AET]]
12 | > 8 pic50 | Ac-DW[Trp(5-Cl)][Hyp]E[dL]C[Thp]LLC-NH2 (linker 7-11 via Pyridine(2,6-diCH2); SMILES CC(=O)N[C@@H](CC(=O)O)C(=O)N[C@@H](Cc1c[nH]c2ccccc12)C(=O)N[C@@H](Cc1c[nH]c2ccc(Cl)cc12)C(=O)N1C[C@H](O)C[C@H]1C(=O)N[C@@H](CCC(=O)O)C(=O)N[C@H](CC(C)C)C(=O)N[C@H]1CSCc2cccc(n2)CSC[C@@H](C(N)=O)NC(=O)[C@H](CC(C)C)NC(=O)[C@H](CC(C)C)NC(=O)C2(CCOCC2)NC1=O) [Ac-Asp-Trp-5Clw-Hyp-Glu-leu-[Cys(2Lut)-Thp-Leu-Leu-Cys]-NH2]
13 | > 8 pic50 | Ac-DW[Trp(5-Cl)][Hyp]E[dL]C[Thp]EIC-NH2 (linker 7-11 via Pyridine(2,6-diCH2); SMILES CC[C@H](C)[C@@H]1NC(=O)[C@H](CCC(=O)O)NC(=O)C2(CCOCC2)NC(=O)[C@@H](NC(=O)[C@@H](CC(C)C)NC(=O)[C@H](CCC(=O)O)NC(=O)[C@@H]2C[C@@H](O)CN2C(=O)[C@H](Cc2c[nH]c3ccc(Cl)cc23)NC(=O)[C@H](Cc2c[nH]c3ccccc23)NC(=O)[C@H](CC(=O)O)NC(C)=O)CSCc2cccc(n2)CSC[C@@H](C(N)=O)NC1=O) [Ac-Asp-Trp-5Clw-Hyp-Glu-leu-[Cys(2Lut)-Thp-Glu-Ile-Cys]-NH2]
14 | > 8 pic50 | Ac-D[Phe(2,3-Cl2)][Trp(5-Cl)][Hyp]E[dL]C[Thp]LIC-NH2 (linker 7-11 via Pyridine(2,6-diCH2)) [Ac-Asp-Egp-5Clw-Hyp-Glu-leu-[Cys(2Lut)-Thp-Leu-Ile-Cys]-NH2]
15 | > 8 pic50 | Ac-DW[Trp(5-Cl)][Thz]E[dL]C[Thp]LIC-NH2 (linker 7-11 via Pyridine(2,6-diCH2)) [Ac-Asp-Trp-5Clw-Eaz-Glu-leu-[Cys(2Lut)-Thp-Leu-Ile-Cys]-NH2]
16 | > 8 pic50 | Ac-DW[Trp(5-Cl)][Hyp]E[dL]C[Thp]FIC-NH2 (linker 7-11 via Pyridine(2,6-diCH2); SMILES CC[C@H](C)[C@@H]1NC(=O)[C@H](Cc2ccccc2)NC(=O)C2(CCOCC2)NC(=O)[C@@H](NC(=O)[C@@H](CC(C)C)NC(=O)[C@H](CCC(=O)O)NC(=O)[C@@H]2C[C@@H](O)CN2C(=O)[C@H](Cc2c[nH]c3ccc(Cl)cc23)NC(=O)[C@H](Cc2c[nH]c3ccccc23)NC(=O)[C@H](CC(=O)O)NC(C)=O)CSCc2cccc(n2)CSC[C@@H](C(N)=O)NC1=O) [Ac-Asp-Trp-5Clw-Hyp-Glu-leu-[Cys(2Lut)-Thp-Phe-Ile-Cys]-NH2]
17 | > 8 pic50 | Ac-DW[Trp(5-Cl)][Hyp]E[dL]C[Thp]WIC-NH2 (linker 7-11 via Pyridine(2,6-diCH2); SMILES CC[C@H](C)[C@@H]1NC(=O)[C@H](Cc2c[nH]c3ccccc23)NC(=O)C2(CCOCC2)NC(=O)[C@@H](NC(=O)[C@@H](CC(C)C)NC(=O)[C@H](CCC(=O)O)NC(=O)[C@@H]2C[C@@H](O)CN2C(=O)[C@H](Cc2c[nH]c3ccc(Cl)cc23)NC(=O)[C@H](Cc2c[nH]c3ccccc23)NC(=O)[C@H](CC(=O)O)NC(C)=O)CSCc2cccc(n2)CSC[C@@H](C(N)=O)NC1=O) [Ac-Asp-Trp-5Clw-Hyp-Glu-leu-[Cys(2Lut)-Thp-Trp-Ile-Cys]-NH2]
